Assay results from patent publication US20250109193A1 (FLAGSHIP PIONEERING INNOVATIONS VI, published 2025).

Tests used:
[1] = biological target: T1, human thymic stromal lymphopoietin (TSLP) (human, UniProt Q969D9 29-159); test: cell-based or functional assay
cynomolgus monkey TSLP [2] = biological target: T2, cynomolgus monkey TSLP (cynomolgus monkey); test: cell-based or functional assay
T2 chain: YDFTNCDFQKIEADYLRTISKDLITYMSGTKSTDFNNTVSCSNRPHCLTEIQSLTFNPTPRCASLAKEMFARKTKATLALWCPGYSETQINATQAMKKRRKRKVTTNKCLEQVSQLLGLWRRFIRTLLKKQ

cynomolgus monkey TSLP [3] = biological target: T2, cynomolgus monkey TSLP; test: indirect ELISA, coated cyno TSLP; 95% CI in brackets
Procedure: (§1) The next day, the plates were washed three times with ELISA wash buffer and blocked with ELISA assay diluent B (BioLegend) for one hour at room temperature (RT). […] Antibody binding was assessed using an 8-point titration curve in triplicates (1:3 serial dilution starting at 10 μg/mL). The plate was washed three times with ELISA wash buffer, and HRP-conjugated anti-human IgG-HRP secondary antibody (Jackson ImmunoResearch Laboratories, Inc.) was added to wells at a 1:5000 dilution in 1×ELISA assay diluent. Secondary antibody was added to detect binding of the primary antibody to the antigen. The plate was incubated for 30 minutes at room temperature with the secondary detection antibody, then the plates were washed three times with ELISA wash buffer and developed with TMB substrate solution (Invitrogen, Waltham, MA). The HRP enzymatic reaction was stopped after about 1 minute with acidic stop solution (Invitrogen), and the absorbance at 450 nm on a Biotek plate reader.
(§2) The EC₅₀ values were calculated using Graphpad Prism 9.2.0 by fitting a four-parameter non-linear regression curve to the average absorbance values of three technical replicates per concentration with three independent experiments. […] N=4 independent experiments with 3 technical replicates. […] N=3 independent experiments with 3 technical replicates.

[4] = biological target: T1, human thymic stromal lymphopoietin …; test: indirect ELISA, coated human TSLP; 95% CI in brackets
Procedure: as §1, §2

mouse TSLP = biological target: T3, mouse TSLP (mouse, UniProt Q9JIE6 20-140); test: direct ELISA: plate coated with 2 µg/mL mouse TSLP, anti-human IgG-HRP, absorbance at 450 nm
T3 construct: also called mouse TSLP cytokine
T3 sequence (looked up): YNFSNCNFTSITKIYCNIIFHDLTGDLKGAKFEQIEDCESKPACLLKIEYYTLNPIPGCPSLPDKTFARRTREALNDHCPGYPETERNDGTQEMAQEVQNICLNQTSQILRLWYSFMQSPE
Procedure: as §1, §2

[5] = biological target: T1, human thymic stromal lymphopoietin …; test: KinExA, solution equilibrium, 25 C
Procedure: The solution equilibrium binding experiments were performed using KinExA 3200 instrument equipped with an autosampler (Sapidyne Instruments, Boise, ID, USA). All analyses were performed at 25° C., and all samples were prepared in 1× phosphate-buffered saline (PBS) filtered buffer supplemented with 1 mg/mL bovine serum albumin (BSA) and 0.02% sodium azide. […] The beads were washed with blocking buffer (1 M Tris supplemented with 10 mg/mL BSA, pH 8.0) and rocked for 1 hour.
The sample injection volumes and flow rates were varied depending upon the antibody tested. […] The concentration, volume and flow rate of the secondary antibody were varied to achieve a signal at less than 1.0 V.
A 1:1 binding equilibrium model was used with the titrant selected as the reference concentration. The drift correction option was used where appropriate.

[6] = biological target: T1, human thymic stromal lymphopoietin …; test: indirect ELISA, coated recombinant hTSLP
Procedure: The next day, the plate was washed three times with ELISA Wash Buffer (PBS-Tween 0.5%), blocked with 1×ELISA assay diluent (BioLegend) for one hour. […] The plate was washed three times with ELISA Wash Buffer, and horseradish peroxidase (HRP)-conjugated anti-human IgG Fc secondary antibody (Promega, Madison, WI) at 1:2000 dilution in 1×ELISA assay diluent was added to detect binding of the primary antibody to the antigen. The plate was incubated for 30 minutes at 37° C. with the secondary detection antibody, then the plate was washed and developed with tetramethyl benzidine (TMB) substrate solution (Thermo Fisher Scientific, Waltham, MA). The HRP enzymatic reaction was stopped after about 1 minute with acidic stop solution (Thermo Fisher Scientific), and the absorbance at 450 nm was determined using a standard plate reader. The EC₅₀ values were calculated by fitting a four-parameter non-linear regression line to the average of two technical replicates per concentration.

[7] = biological target: T1, human thymic stromal lymphopoietin …; test: blocking ELISA: antibody titrated against hTSLP-biotin, coated hTSLPR/hIL-7Rα-Fc
Procedure: A 96 well half area flat bottom plate was coated with 50 μL of recombinant heterodimeric human TSLPR and human IL-7Rα Fe tagged fusion protein (2 μg/mL) in ELISA coating buffer. The plate was incubated overnight at 4° C. and was washed thrice with 150 μL ELISA Wash Buffer (1×PBS-Tween 0.5%) the next day. The plate was blocked with 50 μL of ELISA assay diluent for one hour at 37° C. and was washed three times with 150 μL of ELISA wash buffer. […] The ELISA plate was incubated for 1 hour at 37° C. followed by washing three times with ELISA wash buffer. HRP-Streptavidin (Thermo Fisher Scientific) was diluted 1:2000 in ELISA assay diluent 50 μl was added to each well and incubated for 30 minutes at 37° C. followed by washing three times with ELISA wash buffer. The ELISA was developed by addition of 50 μL of TMB substrate (Thermo Fisher Scientific) and incubation for 2-3 minutes at room temperature (protected from light). The reaction was stopped with acidic stop solution (Thermo Fisher Scientific), and the absorbance was read at 450 nm wavelength using a standard plate reader. Percent inhibition of signal and IC₅₀ values were determined.
A blocking ELISA was performed by coating an ELISA plate with hTSLPR overnight. […] The ELISA plate was incubated for 1 hour at 37° C., followed by washing of the plate. […] The ELISA was developed with TMB substrate, and the HRP enzymatic reaction was stopped with sulfuric acid solution.

B1: AB-2a (antibody, human IgG1, lambda)
heavy: not shown
light: SYVLTQPPSVSVAPGQTARITCGGNNIGSKSVHWYQQKPGQAPVLVVYDDSDRPSWIPERFSGSNSGNTATLTISRGEAGDEADYYCQIWDSSSSLVVFGGGTKLTVLGQPKAAPSVTLFPPSSEELQANKATLVCLISDFYPGAVTVAWKADSSPVKAGVETTTPSKQSNNKYAASSYLSLTPEQWKSHRSYSCQVTHEGSTVEKTVAPTECS
What does the source list for B1?
IC50, human TSLPR/IL-7Rα Ba/F3 STAT5-luciferase assay [1]: 0.02 µg/mL; IC50, cyno TSLPR/IL-7Rα Ba/F3 STAT5-luciferase assay (cynomolgus monkey TSLP [2]): 0.03 µg/mL; EC80 (cynomolgus monkey TSLP [3]): 0.1 µg/mL; EC50 [4]: 0.03 µg/mL; EC80 [4]: 0.09 µg/mL; EC90 [4]: 0.15 µg/mL; binding result (mouse TSLP): no binding (tested: about 5 µg/ml)

B2: AB-2b (antibody, human IgG1, lambda)
heavy: QMQLVESGGGVVQPGRSLRLSCAASGFTFRTYGMHWVRQAPGKGLEWVAVVWYDGSYTHYADSVKGRFTITRDNSKNTLNLQMNSLRAEDTAVYYCARSPQWEEIFEAMDIWGQGTMVTVSSASTKGPSVFPLAPSSKSTSGGTAALGCLVKDYFPEPVTVSWNSGALTSGVHTFPAVLQSSGLYSLSSVVTVPSSSLGTQTYICNVNHKPSNTKVDKRVEPKSCDKTHTCPPCPAPELLGGPSVFLFPPKPKDTLYITREPEVTCVVVDVSHEDPEVKFNWYVDGVEVHNAKTKPREEQYNSTYRVVSVLTVLHQDWLNGKEYKCKVSNKALPAPIEKTISKAKGQPREPQVYTLPPSREEMTKNQVSLTCLVKGFYPSDIAVEWESNGQPENNYKTTPPVLDSDGSFFLYSKLTVDKSRWQQGNVFSCSVMHEALHNHYTQKSLSLSPGK
light: SYVLTQPPSVSVAPGQTARITCGGNNIGSKSVHWYQQKPGQAPVLVVYDDSDRPSWIPERFSGSNSGNTATLTISRGEAGDEADYYCQIWDSSSSLVVFGGGTKLTVLGQPKAAPSVTLFPPSSEELQANKATLVCLISDFYPGAVTVAWKADSSPVKAGVETTTPSKQSNNKYAASSYLSLTPEQWKSHRSYSCQVTHEGSTVEKTVAPTECS
Which results are given for B2?
IC50, human TSLPR/IL-7Rα Ba/F3 STAT5-luciferase assay [1]: 0.03 µg/mL; IC50, cyno TSLPR/IL-7Rα Ba/F3 STAT5-luciferase assay (cynomolgus monkey TSLP [2]): 0.04 µg/mL; EC80 (cynomolgus monkey TSLP [3]): 0.1 µg/mL; EC50 [4]: 0.03 µg/mL; EC80 [4]: 0.1 µg/mL; EC90 [4]: 0.18 µg/mL; binding result (mouse TSLP): no binding (tested: about 5 µg/ml)

B3: AB-8 (antibody, V domains shown)
VH: QMQLVESGGGVVQPGRSLRLSCAASGFTFRTYGMHWVRQAPGKGLEWVAVIWYDGSYTHYADSVKGRFTITRDNSKNTLNLQMNSLRAEDTAVYYCARSPQWEDIFEAFDIWGQGTMVTVSS
VL: SYVLTQPPSVSVAPGQTARITCGGNNIGSKSVHWYQQKPGQAPVLVVYDDSDRPSWIPERFSGSNSGNTATLTISRGEAGDEADYYCQVWDSSSSLVVFGGGTKLTVL
B3 was tested. Which Kd [5] did it give?
The Kd was 0.000335 nM.

B4: AB-1 (antibody, V domains shown)
VH: QMQLVESGGGVVQPGRSLRLSCAASGFTFRTYGMHWVRQAPGKGLEWVAVVWYSGSYTHYADSVKGRFTITRDNSKNTLNLQMNSLRAEDTAVYYCSRSPQWEDIFEAMDIWGQGTMVTVSS
VL: SYVLTQPPSVSVAPGQTARITCGGNNIGSKSVHWYQQKPGQAPVLVVYDDSDRPSWIPERFSGSNSGNTATLTISRGEAGDEADYYCQVWDSSSSLVVFGGGTKLTVL
B4 was tested. Which Kd [5] did it give?
The Kd was 0.000208 nM.

What about the EC50 [6] of the same binder?
Its EC50 is 0.265 nM.

B5: AB-2 (antibody, human IgG1, V domains shown)
VH: QMQLVESGGGVVQPGRSLRLSCAASGFTFRTYGMHWVRQAPGKGLEWVAVVWYDGSYTHYADSVKGRFTITRDNSKNTLNLQMNSLRAEDTAVYYCARSPQWEEIFEAMDIWGQGTMVTVSS
VL: SYVLTQPPSVSVAPGQTARITCGGNNIGSKSVHWYQQKPGQAPVLVVYDDSDRPSWIPERFSGSNSGNTATLTISRGEAGDEADYYCQIWDSSSSLVVFGGGTKLTVL
With B5 as the binder, how does the Kd [5] read?
Its Kd is 0.000123 nM.

What about the EC50 [6] of the same binder?
Its EC50 is 0.204 nM.

And the IC50 [7]?
Its IC50 is 0.29 nM.

B6: AB-3 (antibody, V domains shown)
VH: QMQLVESGGGVVQPGRSLRLSCAASGFTFRTYGMHWVRQAPGKGLEWVAVIWYDGTYTHYADSVKGRFTITRDNSKNTLNLQMNSLRAEDTAVYYCARSPQWESIFEAFDIWGQGTMVTVSS
VL: SYVLTQPPSVSVAPGQTARITCGGNNIGSKSVHWYQQKPGQAPVLVVYDDSDRPSWIPERFSGSNSGNTATLTISRGEAGDEADYYCQVWDSSSSLVVFGGGTKLTVL
With B6 as the binder, how does the Kd [5] read?
The Kd was 0.000302 nM.

And the EC50 [6]?
Its EC50 is 0.237 nM.

What about the IC50 [7] of the same binder?
Its IC50 is 0.232 nM.

B7: AB-4 (antibody, V domains shown)
VH: QMQLVESGGGVVQPGRSLRLSCAASGFTFRTYGMHWVRQAPGKGLEWVAVIWYSGSDTHYADSVKGRFTITRDNSKNTLNLQMNSLRAEDTAVYYCARSPQWEDIFESMDVWGQGTMVTVSS
VL: SYVLTQPPSVSVAPGQTARITCGGNYIGSFSVHWYQQKPGQAPVLVVYDDSDRPSWIPERFSGSNSGNTATLTISRGEAGDEADYYCQIYVSASRLVVFGGGTKLTVL
Which Kd [5] does the source give for B7 here?
The Kd was 0.000208 nM.

What about the EC50 [6] of the same binder?
The EC50 was 0.26 nM.

B8: AB-5 (antibody, V domains shown)
VH: QMQLVESGGGVVQPGRSLRLSCAASGFTFRTYGMHWVRQAPGKGLEWVAVVWYDGYDTHYADSVKGRFTITRDNSKNTLNLQMNSLRAEDTAVYYCSRSPQWEDIFESMDIWGQGTMVTVSS
VL: SYVLTQPPSVSVAPGQTARITCGGNNLGSKSVHWYQQKPGQAPVLVVYDDSDRPSWIPERFSGSNSGNTATLTISRGEAGDEADYYCQVWDMSSDLVVFGGGTKLTVL
What does the source list for B8?
Kd [5]: 0.00014 nM; EC50 [6]: 0.264 nM; IC50 [7]: 0.246 nM

B9: AB-6 (antibody, V domains shown)
VH: QMQLVESGGGVVQPGRSLRLSCAASGFTFRTYGMHWVRQAPGKGLEWVAVVWYDGSDIHYADSVKGRFTITRDNSKNTLNLQMNSLRAEDTAVYYCSRSPQWEDIFESMDIWGQGTMVTVSS
VL: SYVLTQPPSVSVAPGQTARITCGGNNIGSKSVHWYQQKPGQAPVLVVYDDSDRPSWIPERFSGSNSGNTATLTISRGEAGDEADYYCQIWDSSSDHVVFGGGTKLTVL
With B9 as the binder, how does the Kd [5] read?
Its Kd is 0.000133 nM.

And the EC50 [6]?
The EC50 was 0.397 nM.

B10: AB-7 (antibody, V domains shown)
VH: QMQLVESGGGVVQPGRSLRLSCAASGFTFRTYGMHWVRQAPGKGLEWVAVIWYSGAYIHYADSVKGRFTITRDNSKNTLNLQMNSLRAEDTAVYYCSRSPQWEDIFEAMDIWGQGTMVTVSS
VL: SYVLTQPPSVSVAPGQTARITCGGNNLGSYSVHWYQQKPGQAPVLVVYDDSDRPSWIPERFSGSNSGNTATLTISRGEAGDEADYYCQVWDMSSSLVVFGGGTKLTVL
Which Kd [5] does the source give for B10 here?
Its Kd is 0.000184 nM.

And the EC50 [6]?
The EC50 was 0.29 nM.

And the IC50 [7]?
The IC50 was 0.162 nM.

B11: AB-9 (antibody, V domains shown)
VH: QMQLVESGGGVVQPGRSLRLSCAASGFTFRTYGMHWVRQAPGKGLEWVAVIWYDGSYTHYADSVKGRFTITRDNSKNTLNLQMNSLRAEDTAVYYCARSPQWESIFEAFDIWGQGTMVTVSS
VL: SYVLTQPPSVSVAPGQTARITCGGNNIGSKSVHWYQQKPGQAPVLVVYDDSDRPSWIPERFSGSNSGNTATLTISRGEAGDEADYYCQVWDSSSSLVVFGGGTKLTVL
What does the source list for B11?
Kd [5]: 0.000496 nM; IC50 [7]: 0.227 nM

B12: AB-10 (antibody, V domains shown)
VH: QMQLVESGGGVVQPGRSLRLSCAASGFTFRTYGMHWVRQAPGKGLEWVAVIWYSGTTTHYADSVKGRFTITRDNSKNTLNLQMNSLRAEDTAVYYCSRSPQWEDIFESMDIWGQGTMVTVSS
VL: SYVLTQPPSVSVAPGQTARITCGGNNIGSKNVHWYQQKPGQAPVLVVYDDSDRPSWIPERFSGSNSGNTATLTISRGEAGDEADYYCQVWDSSDFLVVFGGGTKLTVL
For B12, which Kd [5] is on record?
Its Kd is 0.000395 nM.

What about the EC50 [6] of the same binder?
The EC50 was 0.286 nM.

And the IC50 [7]?
The IC50 was 0.251 nM.

B13: AB-12 (antibody, V domains shown)
VH: QMQLVESGGGVVQPGRSLRLSCAASGFTFRTYGMHWVRQAPGKGLEWVAVVWYDGSNTHYADSVKGRFTITRDNSKNTLNLQMNSLRAEDTAVYYCARAPQWESVHEAFDIWGQGTMVTVSS
VL: SYVLTQPPSVSVAPGQTARITCGGNNIGRFSVHWYQQKPGQAPVLVVYDDSDRPSWIPERFSGSNSGNTATLTISRGEAGDEADYYCQVWVSTSDKVVFGGGTKLTVL
For B13, which Kd [5] is on record?
The Kd was 0.00102 nM.

What about the EC50 [6] of the same binder?
Its EC50 is 0.291 nM.

What about the IC50 [7] of the same binder?
Its IC50 is 0.29 nM.

B14: AB-13 (antibody, V domains shown)
VH: QMQLVESGGGVVQPGRSLRLSCAASGFTFRTYGMHWVRQAPGKGLEWVAVISYDGSTKHYADSVKGRFTITRDNSKNTLNLQMNSLRAEDTAVYYCARAPQWESVYEAFDIWGQGTMVTVSS
VL: SYVLTQPPSVSVAPGQTARITCGGNNLGSFSVHWYQQKPGQAPVLVVYDDSDRPSWIPERFSGSNSGNTATLTISRGEAGDEADYYCQVWDSSEDLVVFGGGTKLTVL
How did the EC50 [6] turn out when B14 was run?
The EC50 was 0.23 nM.

And the IC50 [7]?
The IC50 was 0.223 nM.

B15: AB-14 (antibody, V domains shown)
VH: QMQLVESGGGVVQPGRSLRLSCAASGFTFRTYGMHWVRQAPGKGLEWVAVIWYDGSTKHYADSVKGRFTITRDNSKNTLNLQMNSLRAEDTAVYYCARAPQWELVHEAFDIWGQGTMVTVSS
VL: SYVLTQPPSVSVAPGQTARITCGGNNIGSKNVHWYQQKPGQAPVLVVYDDSDRPSWIPERFSGSNSGNTATLTISRGEAGDEADYYCQVWDESSDEVVFGGGTKLTVL
B15 was tested. Which Kd [5] did it give?
The Kd was 0.000877 nM.

What about the EC50 [6] of the same binder?
The EC50 was 0.264 nM.

What about the IC50 [7] of the same binder?
Its IC50 is 0.186 nM.

B16: AB-11 (antibody, V domains shown)
VH: QMQLVESGGGVVQPGRSLRLSCAASGFTFRTYGMHWVRQAPGKGLEWVAVISYSGSYIHYADSVKGRFTITRDNSKNTLNLQMNSLRAEDTAVYYCTRSPQWEEVYEALDIWGQGTMVTVSS
VL: SYVLTQPPSVSVAPGQTARITCGGNNIGSFSVHWYQQKPGQAPVLVVYDDSDRPSWIPERFSGSNSGNTATLTISRGEAGDEADYYCQVWSSTSRHVVFGGGTKLTVL
How did the Kd [5] turn out when B16 was run?
The Kd was 0.000754 nM.

And the EC50 [6]?
The EC50 was 0.173 nM.

And the IC50 [7]?
Its IC50 is 0.243 nM.
